Laboratory results from US20160347808A1 (IMMATICS BIOTECHNOLOGIES, published 2016).

Target: T1, HLA-A*02:01 (peptide-receptive MHC class I monomer from UV-ligand exchange) (human)
T1 construct: Monomers were captured on streptavidin-coated plates
Assay: UV-exchange ELISA (anti-b2m); exchange yield grade: + >=10%, ++ >=20%, +++ >=50%, ++++ >=75%
Excerpt: Candidate peptides for T cell based therapies according to the present invention were further tested for their MHC binding capacity (affinity). The individual peptide-MHC complexes were produced by UV-ligand exchange, where a UV-sensitive peptide is cleaved upon UV-irradiation, and exchanged with the peptide of interest as analyzed. Only peptide candidates that can effectively bind and stabilize the peptide-receptive MHC molecules prevent dissociation of the MHC complexes. To determine the yield of the exchange reaction, an ELISA was performed based on the detection of the light chain (β2m) of stabilized MHC complexes. The assay was performed as generally described in Rodenko et al. (Rodenko et al., 2006).
96 well MAXISorp plates (NUNC) were coated over night with 2 ug/ml streptavidin in PBS at room temperature, washed 4× and blocked for 1 h at 37° C. in 2% BSA containing blocking buffer. Refolded HLA-A*02:01/MLA-001 monomers served as standards, covering the range of 15-500 ng/ml. Peptide-MHC monomers of the UV-exchange reaction were diluted 100 fold in blocking buffer. Samples were incubated for 1 h at 37° C., washed four times, incubated with 2 ug/ml HRP conjugated anti-β2m for 1 h at 37° C., washed again and detected with TMB solution that is stopped with […]. Absorption was measured at 450 nm. Candidate peptides that show a high exchange yield (preferably higher than 50%, most preferred higher than 75%) are generally preferred for a generation and production of antibodies or fragments thereof, and/or T cell receptors or fragments thereof, as they show sufficient avidity to the MHC molecules and prevent dissociation of the MHC complexes.

Binder	peptide exchange yield
ILYQTVTGL [peptide ILYQTVTGL (SEQ ID NO 119)]	20 to 50%
ILYDLQQNL [peptide ILYDLQQNL (SEQ ID NO 113)]	20 to 50%
RLAELTVDEFLA [peptide RLAELTVDEFLA (SEQ ID NO 127)]	50 to 75%
KLLEFDQLQL [peptide KLLEFDQLQL (SEQ ID NO 160)]	50 to 75%
KLMDYIDEL [peptide KLMDYIDEL (SEQ ID NO 162)]	50 to 75%
LLNDRIWLA [peptide LLNDRIWLA (SEQ ID NO 144)]	50 to 75%
RLLENMTEVV [peptide RLLENMTEVV (SEQ ID NO 148)]	50 to 75%
MLDDRAYLV [peptide MLDDRAYLV (SEQ ID NO 128)]	20 to 50%
LLADLKTMV [peptide LLADLKTMV (SEQ ID NO 118)]	50 to 75%
ALDGDQMEL [peptide ALDGDQMEL (SEQ ID NO 109)]	20 to 50%
LLNEILEQV [peptide LLNEILEQV (SEQ ID NO 140)]	50 to 75%
KQFEGTVEI [peptide KQFEGTVEI (SEQ ID NO 138)]	50 to 75%
RLLHEVQEL [peptide RLLHEVQEL (SEQ ID NO 163)]	50 to 75%
ILFSEDSTKLFV [peptide ILFSEDSTKLFV (SEQ ID NO 153)]	50 to 75%
GLGGSQLIDTHL [peptide GLGGSQLIDTHL (SEQ ID NO 130)]	20 to 50%
RLADLEALKV [peptide RLADLEALKV (SEQ ID NO 150)]	50 to 75%
ALLNAILHSA [peptide ALLNAILHSA (SEQ ID NO 132)]	50 to 75%
FLKNELDNV [peptide FLKNELDNV (SEQ ID NO 161)]	50 to 75%
ILLTIKDDTIYL [peptide ILLTIKDDTIYL (SEQ ID NO 104)]	50 to 75%
FLLAEDTKV [peptide FLLAEDTKV (SEQ ID NO 13)]	50 to 75%
LVYQFVHPI [peptide LVYQFVHPI (SEQ ID NO 116)]	20 to 50%
GLLDPSVFHV [peptide GLLDPSVFHV (SEQ ID NO 158)]	50 to 75%

Binder	peptide exchange yield
KLPSETIFVGC [peptide KLPSETIFVGC (SEQ ID NO 154)]	50 to 75%
RMYNKIFAI [peptide RMYNKIFAI (SEQ ID NO 10)]	50 to 75%
ALLGGGPYML [peptide ALLGGGPYML (SEQ ID NO 107)]	50 to 75%
LLLEVVKQV [peptide LLLEVVKQV (SEQ ID NO 145)]	50 to 75%
ALIKQLFEA (also called ZNF-002) [peptide ALIKQLFEA (SEQ ID NO 1)]	50 to 75%
KLFDIFSQQV [peptide KLFDIFSQQV (SEQ ID NO 136)]	50 to 75%
ALSDETWGL [peptide ALSDETWGL (SEQ ID NO 146)]	20 to 50%
KLQEEIPVL [peptide KLQEEIPVL (SEQ ID NO 135)]	20 to 50%
KLLAVIHEL (also called RAD54B-002) [peptide KLLAVIHEL (SEQ ID NO 152)]	20 to 50%
KTLERSYLL [peptide KTLERSYLL (SEQ ID NO 123)]	20 to 50%
FLDKPEDVLL [peptide FLDKPEDVLL (SEQ ID NO 14)]	20 to 50%
GVAGGSILKGV [peptide GVAGGSILKGV (SEQ ID NO 134)]	≥ 75%
KLLDVVHPA [peptide KLLDVVHPA (SEQ ID NO 131)]	20 to 50%
RLLGEEVVRV [peptide RLLGEEVVRV (SEQ ID NO 155)]	50 to 75%
KLGQVLIYL [peptide KLGQVLIYL (SEQ ID NO 112)]	20 to 50%
AVIEHLERL [peptide AVIEHLERL (SEQ ID NO 141)]	≥ 75%
LQLDKEFQL [peptide LQLDKEFQL (SEQ ID NO 15)]	50 to 75%
QLTEIKPLL [peptide QLTEIKPLL (SEQ ID NO 137)]	50 to 75%
KLGDFGLLVEL [peptide KLGDFGLLVEL (SEQ ID NO 125)]	≥ 75%
LLGELPRLLLL [peptide LLGELPRLLLL (SEQ ID NO 110)]	50 to 75%
ALVQGILERV [peptide ALVQGILERV (SEQ ID NO 12)]	50 to 75%
KLSDVWKEL [peptide KLSDVWKEL (SEQ ID NO 143)]	50 to 75%

Next, values leading:

peptide exchange yield	Binder
50 to 75%	SLMGMVLKL [peptide SLMGMVLKL (SEQ ID NO 122)]
50 to 75%	SLIERDLKL [peptide SLIERDLKL (SEQ ID NO 157)]
20 to 50%	TLQPVDNSTISL [peptide TLQPVDNSTISL (SEQ ID NO 117)]
50 to 75%	SLVQRVETI (also called ECT2-001) [peptide SLVQRVETI (SEQ ID NO 142)]
50 to 75%	RVLPPSALQSV [peptide RVLPPSALQSV (SEQ ID NO 124)]
50 to 75%	SAQGSDVSLTACKV [peptide SAQGSDVSLTACKV (SEQ ID NO 151)]
50 to 75%	SLAPNIISQL [peptide SLAPNIISQL (SEQ ID NO 121)]
50 to 75%	VLIDVLKEL [peptide VLIDVLKEL (SEQ ID NO 129)]
50 to 75%	TLAKYLMEL [peptide TLAKYLMEL (SEQ ID NO 126)]
≥ 75%	TLTELRAFL [peptide TLTELRAFL (SEQ ID NO 147)]
50 to 75%	YQFDKVGILTL [peptide YQFDKVGILTL (SEQ ID NO 149)]
50 to 75%	SLFDVSHML [peptide SLFDVSHML (SEQ ID NO 115)]
≥ 75%	SLMMTIINL [peptide SLMMTIINL (SEQ ID NO 156)]
50 to 75%	SLAELVPGVGGI [peptide SLAELVPGVGGI (SEQ ID NO 108)]
10 to 20%	TAVGHALVL [peptide TAVGHALVL (SEQ ID NO 114)]
20 to 50%	RTFEKIEEV [peptide RTFEKIEEV (SEQ ID NO 133)]
20 to 50%	VLYEGVDEV [peptide VLYEGVDEV (SEQ ID NO 120)]
50 to 75%	VLLNEILEQV [peptide VLLNEILEQV (SEQ ID NO 139)]
20 to 50%	VLVDDDGIKVV [peptide VLVDDDGIKVV (SEQ ID NO 159)]
50 to 75%	YLFEKTFNM [peptide YLFEKTFNM (SEQ ID NO 11)]
50 to 75%	YALDLSTFL [peptide YALDLSTFL (SEQ ID NO 105)]
50 to 75%	SLISEKILL [peptide SLISEKILL (SEQ ID NO 106)]
